Target: T1, ADAMTS13 (Homo sapiens, UniProt Q76LX8)
T1 construct: tissue Gen-Probe GTI Diagnostics (ATS-13 kit calibrators, controls and proficiency samples); George King Biomedical Inc. (FACT, A-FACT, B-FACT plasmas) ATS-13; host or cells: plasma
T1 sequence (Q76LX8 75-1427): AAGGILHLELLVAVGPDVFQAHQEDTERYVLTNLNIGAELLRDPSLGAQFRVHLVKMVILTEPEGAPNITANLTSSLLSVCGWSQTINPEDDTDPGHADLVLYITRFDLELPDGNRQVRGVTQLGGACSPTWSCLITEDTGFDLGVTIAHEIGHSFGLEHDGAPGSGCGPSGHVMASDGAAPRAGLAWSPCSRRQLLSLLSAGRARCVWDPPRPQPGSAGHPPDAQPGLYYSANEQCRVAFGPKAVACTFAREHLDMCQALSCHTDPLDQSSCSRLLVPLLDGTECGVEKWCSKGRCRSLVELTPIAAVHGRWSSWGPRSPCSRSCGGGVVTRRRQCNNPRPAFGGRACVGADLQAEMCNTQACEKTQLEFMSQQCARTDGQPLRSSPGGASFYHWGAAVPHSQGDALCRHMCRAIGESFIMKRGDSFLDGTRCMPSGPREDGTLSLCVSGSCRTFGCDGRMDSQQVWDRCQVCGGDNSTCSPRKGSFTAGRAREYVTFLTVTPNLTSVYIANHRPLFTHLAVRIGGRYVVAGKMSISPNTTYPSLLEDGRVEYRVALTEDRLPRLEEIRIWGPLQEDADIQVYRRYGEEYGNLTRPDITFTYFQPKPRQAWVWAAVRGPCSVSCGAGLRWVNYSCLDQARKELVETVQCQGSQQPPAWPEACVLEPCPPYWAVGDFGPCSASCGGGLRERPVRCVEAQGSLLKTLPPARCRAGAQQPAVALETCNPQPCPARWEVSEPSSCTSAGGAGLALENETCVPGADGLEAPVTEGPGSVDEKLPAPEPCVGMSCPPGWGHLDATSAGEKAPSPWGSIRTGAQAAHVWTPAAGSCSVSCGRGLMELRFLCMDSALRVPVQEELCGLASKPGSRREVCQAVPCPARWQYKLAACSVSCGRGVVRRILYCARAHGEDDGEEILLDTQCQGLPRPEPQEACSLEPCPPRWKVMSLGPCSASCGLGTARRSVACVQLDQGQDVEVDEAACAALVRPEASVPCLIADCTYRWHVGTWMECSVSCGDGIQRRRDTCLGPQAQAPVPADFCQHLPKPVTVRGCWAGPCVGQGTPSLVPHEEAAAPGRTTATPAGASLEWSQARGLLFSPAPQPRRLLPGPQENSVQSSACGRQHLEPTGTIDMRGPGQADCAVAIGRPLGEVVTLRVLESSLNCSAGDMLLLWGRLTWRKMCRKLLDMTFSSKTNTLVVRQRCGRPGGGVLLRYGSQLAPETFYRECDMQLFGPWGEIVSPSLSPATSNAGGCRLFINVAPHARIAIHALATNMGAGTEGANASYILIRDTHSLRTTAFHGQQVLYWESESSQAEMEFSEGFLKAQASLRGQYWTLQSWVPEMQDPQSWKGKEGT
Test: ADAMTS13 activity assay with fluorogenic (FRET) polypeptide substrate and diluted plasma samples
Format: biochemical
Experimental: The procedure in this example was performed substantially as described in Kokame, K., Y. Nobe, Y. Kokubo, A. Okayama, and T. Miyata. 2005. FRETS-VWF73, a first fluorogenic substrate for ADAMTS13 assay. Br. J. Haematol. 129:93-100, but using SEQ ID NO: 1 in place of the 73 amino acid substrate described therein. The FRETS-VWF73 substrate solution was dissolved in 25% dimethyl sulphoxide/water to prepare the 100 microM stock solution. The GTI FRET4 SEQ ID NO: 1 was dissolved in 100% DMSO. Both substrates were diluted to equal concentrations using ATS-13 substrate buffer (Gen-Probe GT1 Diagnostics, Inc., U.S.A., Cat#ATS-13).
Plasma samples were diluted according to the ATS-13 Direction Insert using ATS-13 specimen diluent (Gen-Probe GTI Diagnostics, Inc., U.S.A., Cat# ATS-13). The diluted plasma samples were mixed with the diluted substrate and the fluorescence was read at 0, 5, 10, 15, 20, 30, 45 minutes using a Biotek FLX800 at the appropriate excitation and emission wavelengths for each substrate.
The fluorophore-quencher pair in the SEQ ID NO: 1 polypeptide substrate is FAM-5/TQ 2^Tm (Ex 485±20; Em 528±20; AAT Bioquest, Inc. Sunnyvale, Calif. U.S.A.). The fluorophore and quencher pair of FRETS-VWF73 (Nma/Dnp) described in Kokame has been substituted with FAM-5 and TQ_2 respectively in GTI_FRET4 SEQ ID NO: 1. Furthermore, in the SEQ ID NO: 1 polypeptide the position of the fluorophore (FAM-5) and quencher (TQ_2) has been swapped relative to the position of the fluorophore and quencher of the FRETS-VWF73 construct. Therefore, for GTI_FRET4 SEQ ID NO: 1, attachment of the fluorophore (FAM-5) occurs by substituting asparagine with cystine at position 15. The quencher (TQ_2) was attached by substituting glutamine with lysine at position 4 (FIG. 2 and Table 4).
For this experiment, substrate concentration and fluorescence reader settings determined on the previous experiment are used. The specimens tested (listed in Table 3), include a panel of proficiency samples prepared for use with ATS-13 (Gen-Probe GTI Diagnostics, Inc., U.S.A., Cat# ATS-13) which included samples with normal or deficient ADAMTS13 activity levels. In addition, six Factor Assay ConTrol plasma were used (2 FACT, 2 A-FACT and 2 B-FACT, from George King Biomedical Inc., Kansas, USA). The assays for the SEQ ID NO: 1 substrate and for the prior art FRETS-VWF73 assay were performed generally as according to the procedure described in Example 1. Substrate is prepared according to the conditions used for initial testing of the substrate, which prepared the molar amount of SEQ ID NO: 1 polypeptide substrate used in the assay to be equivalent to the molar amount of FRETS-VWF73 used in the prior art. The […] assays were read at 0, 5, 10, 15, 20, 30, 45 minutes.
Testing of substrate for cleavability by ADAMTS13 is determined as is generally described in Example 1. […]

% Normal ADAMTS13 Values Calculated Using GTI_FRET4 Substrate (sample Positive Control High, incubation 60 Minutes): 51 % Normal
% Normal ADAMTS13 Values Calculated Using GTI_FRET4 Substrate (sample Positive Control High, incubation 75 Minutes): 54 % Normal
% Normal ADAMTS13 Values Calculated Using GTI_FRET4 Substrate (sample Positive Control High, incubation 90 Minutes): 55 % Normal
Increase in Fluorescence Values (X minute - 0 minute Reading) (sample Positive Control Low, 15 min): 2,182 RFU
Increase in Fluorescence Values (X minute - 0 minute Reading) (sample Positive Control Low, 30 min): 3,902 RFU
Increase in Fluorescence Values (X minute - 0 minute Reading) (sample Positive Control Low, 45 min): 5,511 RFU
Increase in Fluorescence Values (X minute - 0 minute Reading) (sample Positive Control Low, 60 min): 7,169 RFU
Increase in Fluorescence Values (X minute - 0 minute Reading) (sample Positive Control Low, 75 min): 8,789 RFU
Increase in Fluorescence Values (X minute - 0 minute Reading) (sample Positive Control Low, 90 min): 10,370 RFU
% Normal ADAMTS13 Values Calculated Using GTI_FRET4 Substrate (sample Positive Control Low, incubation 15 Minutes): 10 % Normal
% Normal ADAMTS13 Values Calculated Using GTI_FRET4 Substrate (sample Positive Control Low, incubation 30 Minutes): 10 % Normal
% Normal ADAMTS13 Values Calculated Using GTI_FRET4 Substrate (sample Positive Control Low, incubation 45 Minutes): 10 % Normal
% Normal ADAMTS13 Values Calculated Using GTI_FRET4 Substrate (sample Positive Control Low, incubation 60 Minutes): 10 % Normal
% Normal ADAMTS13 Values Calculated Using GTI_FRET4 Substrate (sample Positive Control Low, incubation 75 Minutes): 10 % Normal
% Normal ADAMTS13 Values Calculated Using GTI_FRET4 Substrate (sample Positive Control Low, incubation 90 Minutes): 9 % Normal
Increase in Fluorescence Values (X minute - 0 minute Reading) (sample UAMS041609, 15 min): 3,876 RFU
Increase in Fluorescence Values (X minute - 0 minute Reading) (sample UAMS041609, 30 min): 7,931 RFU
Increase in Fluorescence Values (X minute - 0 minute Reading) (sample UAMS041609, 45 min): 11,692 RFU
Increase in Fluorescence Values (X minute - 0 minute Reading) (sample UAMS041609, 60 min): 15,886 RFU
Increase in Fluorescence Values (X minute - 0 minute Reading) (sample UAMS041609, 75 min): 19,867 RFU
Increase in Fluorescence Values (X minute - 0 minute Reading) (sample UAMS041609, 90 min): 24,709 RFU
% Normal ADAMTS13 Values Calculated Using GTI_FRET4 Substrate (sample UAMS041609, incubation 15 Minutes): 19 % Normal
% Normal ADAMTS13 Values Calculated Using GTI_FRET4 Substrate (sample UAMS041609, incubation 30 Minutes): 22 % Normal
% Normal ADAMTS13 Values Calculated Using GTI_FRET4 Substrate (sample UAMS041609, incubation 45 Minutes): 23 % Normal
% Normal ADAMTS13 Values Calculated Using GTI_FRET4 Substrate (sample UAMS041609, incubation 60 Minutes): 24 % Normal
% Normal ADAMTS13 Values Calculated Using GTI_FRET4 Substrate (sample UAMS041609, incubation 75 Minutes): 26 % Normal
% Normal ADAMTS13 Values Calculated Using GTI_FRET4 Substrate (sample UAMS041609, incubation 90 Minutes): 27 % Normal
Increase in Fluorescence Values (X minute - 0 minute Reading) (sample VF, 15 min): 1,292 RFU
Increase in Fluorescence Values (X minute - 0 minute Reading) (sample VF, 30 min): 2,436 RFU
Increase in Fluorescence Values (X minute - 0 minute Reading) (sample VF, 45 min): 3,552 RFU
Increase in Fluorescence Values (X minute - 0 minute Reading) (sample VF, 60 min): 4,690 RFU
Increase in Fluorescence Values (X minute - 0 minute Reading) (sample VF, 75 min): 5,784 RFU
Increase in Fluorescence Values (X minute - 0 minute Reading) (sample VF, 90 min): 7,260 RFU
% Normal ADAMTS13 Values Calculated Using GTI_FRET4 Substrate (sample VF, incubation 15 Minutes): 5 % Normal
% Normal ADAMTS13 Values Calculated Using GTI_FRET4 Substrate (sample VF, incubation 30 Minutes): 6 % Normal
% Normal ADAMTS13 Values Calculated Using GTI_FRET4 Substrate (sample VF, incubation 45 Minutes): 6 % Normal
% Normal ADAMTS13 Values Calculated Using GTI_FRET4 Substrate (sample VF, incubation 60 Minutes): 6 % Normal
% Normal ADAMTS13 Values Calculated Using GTI_FRET4 Substrate (sample VF, incubation 75 Minutes): 5 % Normal
% Normal ADAMTS13 Values Calculated Using GTI_FRET4 Substrate (sample VF, incubation 90 Minutes): 6 % Normal
Sequence: DREKAPNLVYMVTGCPASDEIKRLPGDIQVVPIEVIGWPNAPILIQDEETLPREAPDLVLQR [GTI_FRET4]
